# According to patent publication US20200079833A1 (AstraZeneca / MedImmune, published 2020):
# Starred links: 1 amine or outer side, 2 acyl side, 3 side chain; linkers in the order of their positions; H or OH if unused. Non-standard residues stand in square brackets, D forms with d. Groups on a side chain read outwards from the residue. Primed or numbered codes have the meaning given here. No end group written: not given here. *: point of attachment. Dodecanoyl(12-OPh(4-COOH)) = O=C(O)c1ccc(OCCCCCCCCCCCC(=O)*)cc1; γGlu = O=C(O)[C@H](CCC(=O)[*:2])N[*:1]; αMeF = C[C@](N)(Cc1ccccc1)C(=O)O; αMeK = C[C@](N)(CCCCN)C(=O)O; Lauroyl = CCCCCCCCCCCC(=O)*; αMeS = C[C@](N)(CO)C(=O)O; PEG2′ = not defined here; Aib = CC(C)(N)C(=O)O; Ahx = NCCCCCC(=O)O
# T1: glucose-dependent insulinotropic peptide (gastric inhibitory polypeptide) receptor (GIPR) (human, UniProt P48546 22-466)
# T1 sequence (looked up): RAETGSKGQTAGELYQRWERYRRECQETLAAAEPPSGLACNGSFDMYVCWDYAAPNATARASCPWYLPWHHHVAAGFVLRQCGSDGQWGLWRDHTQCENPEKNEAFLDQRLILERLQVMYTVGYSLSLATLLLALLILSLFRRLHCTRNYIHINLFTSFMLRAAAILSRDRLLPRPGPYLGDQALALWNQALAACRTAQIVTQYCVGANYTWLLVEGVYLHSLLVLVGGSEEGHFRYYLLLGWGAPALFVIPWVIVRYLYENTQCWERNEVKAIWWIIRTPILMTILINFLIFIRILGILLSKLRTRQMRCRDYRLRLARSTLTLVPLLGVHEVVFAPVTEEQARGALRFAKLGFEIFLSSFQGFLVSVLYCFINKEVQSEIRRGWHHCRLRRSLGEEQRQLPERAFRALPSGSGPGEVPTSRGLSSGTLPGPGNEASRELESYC
# B1: SEQ ID NO 138 (peptide)
# peptide: H[Aib]EGS[αMeF]TSDV[αMeS]S[αMeF]LEGEAAK([γGlu-γGlu-Dodecanoyl(12-OPh(4-COOH))])E[αMeF]IA[αMeF]VV[αMeK]GG-NH2
# modifications: N-terminus assumed
# SMILES: CC[C@H](C)[C@H](NC(=O)[C@](C)(Cc1ccccc1)NC(=O)[C@H](CCC(=O)O)NC(=O)[C@H](CCCCNC(=O)CC[C@H](NC(=O)CC[C@H](NC(=O)CCCCCCCCCCCOc1ccc(C(=O)O)cc1)C(=O)O)C(=O)O)NC(=O)[C@H](C)NC(=O)[C@H](C)NC(=O)[C@H](CCC(=O)O)NC(=O)CNC(=O)[C@H](CCC(=O)O)NC(=O)[C@H](CC(C)C)NC(=O)[C@](C)(Cc1ccccc1)NC(=O)[C@H](CO)NC(=O)[C@](C)(CO)NC(=O)[C@@H](NC(=O)[C@H](CC(=O)O)NC(=O)[C@H](CO)NC(=O)[C@@H](NC(=O)[C@](C)(Cc1ccccc1)NC(=O)[C@H](CO)NC(=O)CNC(=O)[C@H](CCC(=O)O)NC(=O)C(C)(C)NC(=O)[C@@H](N)Cc1c[nH]cn1)[C@@H](C)O)C(C)C)C(=O)N[C@@H](C)C(=O)N[C@@](C)(Cc1ccccc1)C(=O)N[C@H](C(=O)N[C@H](C(=O)N[C@@](C)(CCCCN)C(=O)NCC(=O)NCC(N)=O)C(C)C)C(C)C
# B2: SEQ ID NO 137 (peptide)
# peptide: H[Aib]EGS[αMeF]TSDV[αMeS]S[αMeF]LEGEAAK([γGlu-Dodecanoyl(12-OPh(4-COOH))])E[αMeF]IA[αMeF]VV[αMeK]GG-NH2
# modifications: N-terminus assumed
# SMILES: CC[C@H](C)[C@H](NC(=O)[C@](C)(Cc1ccccc1)NC(=O)[C@H](CCC(=O)O)NC(=O)[C@H](CCCCNC(=O)CC[C@H](NC(=O)CCCCCCCCCCCOc1ccc(C(=O)O)cc1)C(=O)O)NC(=O)[C@H](C)NC(=O)[C@H](C)NC(=O)[C@H](CCC(=O)O)NC(=O)CNC(=O)[C@H](CCC(=O)O)NC(=O)[C@H](CC(C)C)NC(=O)[C@](C)(Cc1ccccc1)NC(=O)[C@H](CO)NC(=O)[C@](C)(CO)NC(=O)[C@@H](NC(=O)[C@H](CC(=O)O)NC(=O)[C@H](CO)NC(=O)[C@@H](NC(=O)[C@](C)(Cc1ccccc1)NC(=O)[C@H](CO)NC(=O)CNC(=O)[C@H](CCC(=O)O)NC(=O)C(C)(C)NC(=O)[C@@H](N)Cc1c[nH]cn1)[C@@H](C)O)C(C)C)C(=O)N[C@@H](C)C(=O)N[C@@](C)(Cc1ccccc1)C(=O)N[C@H](C(=O)N[C@H](C(=O)N[C@@](C)(CCCCN)C(=O)NCC(=O)NCC(N)=O)C(C)C)C(C)C
# B3: SEQ ID NO 139 (peptide)
# peptide: H[Aib]EGS[αMeF]TSDV[αMeS]S[αMeF]LEGEAAK([γGlu-γGlu-γGlu-Dodecanoyl(12-OPh(4-COOH))])E[αMeF]IA[αMeF]VV[αMeK]GG-NH2
# modifications: N-terminus assumed
# SMILES: CC[C@H](C)[C@H](NC(=O)[C@](C)(Cc1ccccc1)NC(=O)[C@H](CCC(=O)O)NC(=O)[C@H](CCCCNC(=O)CC[C@H](NC(=O)CC[C@H](NC(=O)CC[C@H](NC(=O)CCCCCCCCCCCOc1ccc(C(=O)O)cc1)C(=O)O)C(=O)O)C(=O)O)NC(=O)[C@H](C)NC(=O)[C@H](C)NC(=O)[C@H](CCC(=O)O)NC(=O)CNC(=O)[C@H](CCC(=O)O)NC(=O)[C@H](CC(C)C)NC(=O)[C@](C)(Cc1ccccc1)NC(=O)[C@H](CO)NC(=O)[C@](C)(CO)NC(=O)[C@@H](NC(=O)[C@H](CC(=O)O)NC(=O)[C@H](CO)NC(=O)[C@@H](NC(=O)[C@](C)(Cc1ccccc1)NC(=O)[C@H](CO)NC(=O)CNC(=O)[C@H](CCC(=O)O)NC(=O)C(C)(C)NC(=O)[C@@H](N)Cc1c[nH]cn1)[C@@H](C)O)C(C)C)C(=O)N[C@@H](C)C(=O)N[C@@](C)(Cc1ccccc1)C(=O)N[C@H](C(=O)N[C@H](C(=O)N[C@@](C)(CCCCN)C(=O)NCC(=O)NCC(N)=O)C(C)C)C(C)C
# B4: SEQ ID NO 141 (peptide)
# peptide: H[Aib]EGS[αMeF]TSDV[αMeS]S[αMeF]LEGEAAK([Ahx-Ahx-Dodecanoyl(12-OPh(4-COOH))])E[αMeF]IA[αMeF]VV[αMeK]GG-NH2
# modifications: N-terminus assumed
# SMILES: CC[C@H](C)[C@H](NC(=O)[C@](C)(Cc1ccccc1)NC(=O)[C@H](CCC(=O)O)NC(=O)[C@H](CCCCNC(=O)CCCCCNC(=O)CCCCCNC(=O)CCCCCCCCCCCOc1ccc(C(=O)O)cc1)NC(=O)[C@H](C)NC(=O)[C@H](C)NC(=O)[C@H](CCC(=O)O)NC(=O)CNC(=O)[C@H](CCC(=O)O)NC(=O)[C@H](CC(C)C)NC(=O)[C@](C)(Cc1ccccc1)NC(=O)[C@H](CO)NC(=O)[C@](C)(CO)NC(=O)[C@@H](NC(=O)[C@H](CC(=O)O)NC(=O)[C@H](CO)NC(=O)[C@@H](NC(=O)[C@](C)(Cc1ccccc1)NC(=O)[C@H](CO)NC(=O)CNC(=O)[C@H](CCC(=O)O)NC(=O)C(C)(C)NC(=O)[C@@H](N)Cc1c[nH]cn1)[C@@H](C)O)C(C)C)C(=O)N[C@@H](C)C(=O)N[C@@](C)(Cc1ccccc1)C(=O)N[C@H](C(=O)N[C@H](C(=O)N[C@@](C)(CCCCN)C(=O)NCC(=O)NCC(N)=O)C(C)C)C(C)C
# B5: SEQ ID NO 140 (peptide)
# peptide: H[Aib]EGS[αMeF]TSDV[αMeS]S[αMeF]LEGEAAK([Ahx-Dodecanoyl(12-OPh(4-COOH))])E[αMeF]IA[αMeF]VV[αMeK]GG-NH2
# modifications: N-terminus assumed
# SMILES: CC[C@H](C)[C@H](NC(=O)[C@](C)(Cc1ccccc1)NC(=O)[C@H](CCC(=O)O)NC(=O)[C@H](CCCCNC(=O)CCCCCNC(=O)CCCCCCCCCCCOc1ccc(C(=O)O)cc1)NC(=O)[C@H](C)NC(=O)[C@H](C)NC(=O)[C@H](CCC(=O)O)NC(=O)CNC(=O)[C@H](CCC(=O)O)NC(=O)[C@H](CC(C)C)NC(=O)[C@](C)(Cc1ccccc1)NC(=O)[C@H](CO)NC(=O)[C@](C)(CO)NC(=O)[C@@H](NC(=O)[C@H](CC(=O)O)NC(=O)[C@H](CO)NC(=O)[C@@H](NC(=O)[C@](C)(Cc1ccccc1)NC(=O)[C@H](CO)NC(=O)CNC(=O)[C@H](CCC(=O)O)NC(=O)C(C)(C)NC(=O)[C@@H](N)Cc1c[nH]cn1)[C@@H](C)O)C(C)C)C(=O)N[C@@H](C)C(=O)N[C@@](C)(Cc1ccccc1)C(=O)N[C@H](C(=O)N[C@H](C(=O)N[C@@](C)(CCCCN)C(=O)NCC(=O)NCC(N)=O)C(C)C)C(C)C
# B6: SEQ ID NO 136 (peptide)
# peptide: H[Aib]EGS[αMeF]TSDV[αMeS]S[αMeF]LEGEAAK([PEG2′-PEG2′-PEG2′-Lauroyl])E[αMeF]IA[αMeF]VV[αMeK]GG-NH2
# B7: SEQ ID NO 142 (peptide)
# peptide: H[Aib]EGS[αMeF]TSDV[αMeS]S[αMeF]LEGEAAK([Ahx-Ahx-Ahx-Dodecanoyl(12-OPh(4-COOH))])E[αMeF]IA[αMeF]VV[αMeK]GG-NH2
# modifications: N-terminus assumed
# SMILES: CC[C@H](C)[C@H](NC(=O)[C@](C)(Cc1ccccc1)NC(=O)[C@H](CCC(=O)O)NC(=O)[C@H](CCCCNC(=O)CCCCCNC(=O)CCCCCNC(=O)CCCCCNC(=O)CCCCCCCCCCCOc1ccc(C(=O)O)cc1)NC(=O)[C@H](C)NC(=O)[C@H](C)NC(=O)[C@H](CCC(=O)O)NC(=O)CNC(=O)[C@H](CCC(=O)O)NC(=O)[C@H](CC(C)C)NC(=O)[C@](C)(Cc1ccccc1)NC(=O)[C@H](CO)NC(=O)[C@](C)(CO)NC(=O)[C@@H](NC(=O)[C@H](CC(=O)O)NC(=O)[C@H](CO)NC(=O)[C@@H](NC(=O)[C@](C)(Cc1ccccc1)NC(=O)[C@H](CO)NC(=O)CNC(=O)[C@H](CCC(=O)O)NC(=O)C(C)(C)NC(=O)[C@@H](N)Cc1c[nH]cn1)[C@@H](C)O)C(C)C)C(=O)N[C@@H](C)C(=O)N[C@@](C)(Cc1ccccc1)C(=O)N[C@H](C(=O)N[C@H](C(=O)N[C@@](C)(CCCCN)C(=O)NCC(=O)NCC(N)=O)C(C)C)C(C)C
# Molecular target: glucagon receptor (GCGR) (human, UniProt P47871 26-477)
# Sequence (P47871 26-477): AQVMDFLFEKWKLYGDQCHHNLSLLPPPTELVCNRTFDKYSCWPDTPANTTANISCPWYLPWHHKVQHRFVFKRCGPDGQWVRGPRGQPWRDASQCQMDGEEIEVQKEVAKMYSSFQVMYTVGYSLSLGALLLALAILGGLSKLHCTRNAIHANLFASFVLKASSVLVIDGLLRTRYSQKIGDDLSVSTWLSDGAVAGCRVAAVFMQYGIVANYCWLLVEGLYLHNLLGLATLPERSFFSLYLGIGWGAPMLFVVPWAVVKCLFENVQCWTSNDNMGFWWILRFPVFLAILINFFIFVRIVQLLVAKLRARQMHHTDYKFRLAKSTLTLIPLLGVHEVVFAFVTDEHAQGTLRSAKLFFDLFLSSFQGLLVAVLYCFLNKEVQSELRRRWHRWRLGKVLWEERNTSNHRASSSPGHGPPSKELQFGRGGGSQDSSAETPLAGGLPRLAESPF
# Experiment: cell-based or functional assay
Binder,cAMP Primary assay EC50 Gluc-R [nM],cAMP Primary assay EC50 Gluc-R (2nd) [nM]
B1,26,26
B2,27,27
B3,26,26
B4,27,27
B5,27,27
B6,26,26
B7,26,26

# Molecular target: GLP-1 receptor (GLP-1R) (human, UniProt P43220 24-463)
# Experiment: cell-based or functional assay
Binder,cAMP Mean pM GLP-1R [pM],cAMP Primary assay EC50 GLP-1R n1 [pM],cAMP Primary assay EC50 GLP-1R n2 [pM]
B1,17.2,19,15
B2,5.2,6.6,3.8
B3,25.5,29,22
B4,6.9,8.7,5
B5,4.9,5.9,3.9
B6,3,3.5,2.5
B7,10.1,12,7.9

# Molecular target: T1, glucose-dependent insulinotropic …
# Experiment: cell-based or functional assay
Binder,cAMP Primary assay EC50 GIP-R [nM],cAMP Primary assay EC50 GIP-R (2nd) [nM]
B1,26,26
B2,27,27
B3,26,26
B4,27,27
B5,27,27
B6,26,26
B7,26,26
